Reference: patent US20230346885A1 (published 2023)

T1: ASCL2 peptide on HLA (human)
T1 peptide: LLAEHDAVRNA

T2: ACTL8 peptide on HLA (human)
T2 peptide: RCLFQLETV

T3: ACTL8 peptide on HLA (human)
T3 peptide: SLYASGLLTGV

T4: ACTL8 peptide on HLA (human)
T4 peptide: ALDESNTYQL

T5: ASCL2 peptide on HLA (human)
T5 peptide: LLAEHDAVRNAL


Target: T1, ASCL2 peptide on HLA
Experiment: binding, other

| binding result | Binder |
| --- | --- |
| recognises | TCR of SEQ ID NOs 305 and 306 (TCR, V domains shown) Valpha: KQEVTQIPAALSVPEGENLVLNCSFTDSAIYNLQWFRQDPGKGLTSLLLIQSSQREQTSGRLNASLDKSSGRSTLYIAASQPGDSATYLCAVRSSTDSWGKFQFGAGTQVVVTP Vbeta: NAGVTQTPKFQVLKTGQSMTLQCAQDMNHEYMSWYRQDPGMGLRLIHYSVGAGITDQGEVPNGYNVSRSTTEDFPLRLLSAAPSQTSVYFCASSYSAGLTGELFFGEGSRLTVL |
| recognises | TCR of SEQ ID NOs 309 and 310 (TCR, V domains shown) Valpha: KQEVTQIPAALSVPEGENLVLNCSFTDSAIYNLQWFRQDPGKGLTSLLLIQSSQREQTSGRLNASLDKSSGRSTLYIAASQPGDSATYLCAVRPAGQNFVFGPGTRLSVLP Vbeta: NAGVTQTPKFQVLKTGQSMTLQCAQDMNHNSMYWYRQDPGMGLRLIYYSASEGTTDKGEVPNGYNVSRLNKREFSLRLESAAPSQTSVYFCASSEALWGGNTEAFFGQGTRLPVV |
| recognises | TCR of SEQ ID NOs 307 and 308 (TCR, V domains shown) Valpha: KQEVTQIPAALSVPEGENLVLNCSFTDSAIYNLQWFRQDPGKGLTSLLLIQSSQREQTSGRLNASLDKSSGRSTLYIAASQPGDSATYLCAVTDSWGKLQFGAGTQVVVTP Vbeta: NAGVTQTPKFQVLKTGQSMTLQCAQDMNHNSMYWYRQDPGMGLRLIYYSVGAGITDQGEVPNGYNVSRSTTEDFPLRLLSAAPSQTSVYFCASSRGPINYGYTFGSGTRLTVV |

Target: T2, ACTL8 peptide on HLA
Experiment: binding, other

| binding result | Binder |
| --- | --- |
| recognises | TCR of SEQ ID NOs 291 and 292 (TCR, V domains shown) Valpha: KQEVTQIPAALSVPEGENLVLNCSFTDSAIYNLQWFRQDPGKGLTSLLLIQSSQREQTSGRLNASLDKSSGRSTLYIAASQPGDSATYLCAVDADKLIFGTGTRLQVFP Vbeta: NAGVTQTPKFRILKIGQSMTLQCTQDMNHEYMYWYRQDPGMGLRLIHYSVGEGTTAKGEVPDGYNVSRLKKQNFLLGLESAAPSQTSVYFCASREVGRDEHFFGPGTRLTVL |
| recognises | TCR of SEQ ID NOs 287 and 288 (TCR, V domains shown) Valpha: KQEVTQIPAALSVPEGENLVLNCSFTDSAIYNLQWFRQDPGKGLTSLLLIQSSQREQTSGRLNASLDKSSGRSTLYIAASQPGDSATYLCAVNYYNQGGKLIFGQGTELSVKP Vbeta: NAGVTQTPKFQVLKTGQSMTLQCAQDMNHNSMYWYRQDPGMGLRLIYYSASEGTTDKGEVPNGYNVSRLNKREFSLRLESAAPSQTSVYFCASTPTYWDSYEQYFGPGTRLTVT |
| recognises | TCR of SEQ ID NOs 289 and 290 (TCR, V domains shown) Valpha: KQEVTQIPAALSVPEGENLVLNCSFTDSAIYNLQWFRQDPGKGLTSLLLIQSSQREQTSGRLNASLDKSSGRSTLYIAASQPGDSATYLCAVDSSGSRLTFGEGTQLTVNP Vbeta: NAGVTQTPKFQVLKTGQSMTLQCAQDMNHEYMYWYRQDPGMGLRLIHYSVGAGITDQGEVPNGYNVSRSTTEDFPLRLLSAAPSQTSVYFCASRLLGGSGYTFGSGTRLTVV |

Target: T3, ACTL8 peptide on HLA
Experiment: binding, other

| binding result | Binder |
| --- | --- |
| recognises | TCR of SEQ ID NOs 283 and 284 (TCR, V domains shown) Valpha: KQEVTQIPAALSVPEGENLVLNCSFTDSAIYNLQWFRQDPGKGLTSLLLIQSSQREQTSGRLNASLDKSSGRSTLYIAASQPGDSATYLCAVKKDAGNKLTFGGGTRVLVKP Vbeta: NAGVTQTPKFRVLKTGQSMTLLCAQDMNHEYMYWYRQDPGMGLRLIYYSASEGTTDKGEVPNGYNVSRLNKREFSLRLESAAPSQTSVYFCASSDSRRGGLLLYNSPLHFGNGTRLTVT |
| recognises | TCR of SEQ ID NOs 285 and 286 (TCR, V domains shown) Valpha: KQEVTQIPAALSVPEGENLVLNCSFTDSAIYNLQWFRQDPGKGLTSLLLIQSSQREQTSGRLNASLDKSSGRSTLYIAASQPGDSATYLCAVRAAGNKLTFGGGTRVLVKP Vbeta: NAGVTQTPKFRVLKTGQSMTLLCAQDMNHEYMYWYRQDPGMGLRLIYYSASEGTTDKGEVPNGYNVSRLNKREFSLRLESAAPSQTSVYFCASSDSRRGGLLLYNSPLHFGNGTRLTVT |
| recognises | TCR of SEQ ID NOs 281 and 282 (TCR, V domains shown) Valpha: KQEVTQIPAALSVPEGENLVLNCSFTDSAIYNLQWFRQDPGKGLTSLLLIQSSQREQTSGRLNASLDKSSGRSTLYIAASQPGDSATYLCAVRGYNKLIFGAGTRLAVHP Vbeta: NAGVTQTPKFRVLKTGQSMTLLCAQDMNHEYMYWYRQDPGMGLRLIHYSVGEGTTAKGEVPDGYNVSRLKKQNFLLGLESAAPSQTSVYFCASSFDVTEAFFGQGTRLTVV |

Target: T4, ACTL8 peptide on HLA
Experiment: binding, other

| binding result | Binder |
| --- | --- |
| recognises | TCR of SEQ ID NOs 279 and 280 (TCR, V domains shown) Valpha: KQEVTQIPAALSVPEGENLVLNCSFTDSAIYNLQWFRQDPGKGLTSLLLIQSSQREQTSGRLNASLDKSSGRSTLYIAASQPGDSATYLCATGFQKLVFGTGTRLLVSP Vbeta: NAGVTQTPKFQVLKTGQSMTLQCAQDMNHNSMYWYRQDPGMGLRLIYYSASEGTTDKGEVPNGYNVSRLNKREFSLRLESAAPSQTSVYFCASTLGRLLTEAFFGQGTRLTVV |
| recognises | TCR of SEQ ID NOs 275 and 276 (TCR, V domains shown) Valpha: KQEVTQIPAALSVPEGENLVLNCSFTDSAIYNLQWFRQDPGKGLTSLLLIQSSQREQTSGRLNASLDKSSGRSTLYIAASQPGDSATYLCAVRGYNKLIFGAGTRLAVHP Vbeta: NAGVTQTPKFRILKIGQSMTLQCTQDMNHNYMYWYRQDPGMGLKLIYYSVGAGITDKGEVPNGYNVSRSTTEDFPLRLLSAAPSQTSVYFCASSYSPIVGAFFGQGTRLTVV |
| recognises | TCR of SEQ ID NOs 277 and 278 (TCR, V domains shown) Valpha: KQEVTQIPAALSVPEGENLVLNCSFTDSAIYNLQWFRQDPGKGLTSLLLIQSSQREQTSGRLNASLDKSSGRSTLYIAASQPGDSATYLCAVRGYNKLIFGAGTRLAVHP Vbeta: NAGVTQTPKFRILKIGQSMTLQCAQDMNHNYMYWYRQDPGMGLKLIYYSVGAGITDKGEVPNGYNVSRSTTEDFPLRLELAAPSQTSVYFCASTRDTYYGYTFGSGTRLTVV |

Target: T5, ASCL2 peptide on HLA
Experiment: binding, other

| binding result | Binder |
| --- | --- |
| recognises | TCR of SEQ ID NOs 297 and 298 (TCR, V domains shown) Valpha: KQEVTQIPAALSVPEGENLVLNCSFTDSAIYNLQWFRQDPGKGLTSLLLIQSSQREQTSGRLNASLDKSSGRSTLYIAASQPGDSATYLCAVLTNDYKLSFGAGTTVTVRA Vbeta: NAGVTQTPKFRVLKTGQSMTLLCAQDMNHEYMYWYRQDPGMGLRLIHYSVGEGTTAKGEVPDGYNVSRLKKQNFLLGLESAAPSQTSVYFCASSYSGFDSPLHFGNGTRLTVT |
| recognises | TCR of SEQ ID NOs 293 and 294 (TCR, V domains shown) Valpha: KQEVTQIPAALSVPEGENLVLNCSFTDSAIYNLQWFRQDPGKGLTSLLLIQSSQREQTSGRLNASLDKSSGRSTLYIAASQPGDSATYLCAVRQHTGRRALTFGSGTRLQVQP Vbeta: NAGVTQTPKFRILKIGQSMTLQCTQDMNHNYMYWYRQDPGMGLKLIYYSVGAGITDKGEVPNGYNVSRSTTEDFPLRLELAAPSQTSVYFCASSYSPENTEAFFGQGTRLTVV |
| recognises | TCR of SEQ ID NOs 295 and 296 (TCR, V domains shown) Valpha: KQEVTQIPAALSVPEGENLVLNCSFTDSAIYNLQWFRQDPGKGLTSLLLIQSSQREQTSGRLNASLDKSSGRSTLYIAASQPGDSATYLCAVRQHTGRRALTFGSGTRLQVQP Vbeta: NAGVTQTPKFRILKIGQSMTLQCTQDMNHNYMYWYRQDPGMGLRLIHYSVGAGITDQGEVPNGYNVSRSTTEDFPLRLLSAAPSQTSVYFCASSYSPEADIQYFGAGTRLSVL |
